Numbering of substitutions follows the chain as printed.
T1: rhesus monkey iRhom2 (Macaca mulatta, UniProt F6Y4X6)
T1 construct: pMSCV-rhesus-iR2-FL-WT-T7 encoding rhesus monkey iRhom2 full length wild type; expressed in transfected cells; host or cells: immortalized iRhom1/2-/- DKO mouse embryonic fibroblasts, pMSCV retroviral infection
T1 sequence (F6Y4X6 1-827): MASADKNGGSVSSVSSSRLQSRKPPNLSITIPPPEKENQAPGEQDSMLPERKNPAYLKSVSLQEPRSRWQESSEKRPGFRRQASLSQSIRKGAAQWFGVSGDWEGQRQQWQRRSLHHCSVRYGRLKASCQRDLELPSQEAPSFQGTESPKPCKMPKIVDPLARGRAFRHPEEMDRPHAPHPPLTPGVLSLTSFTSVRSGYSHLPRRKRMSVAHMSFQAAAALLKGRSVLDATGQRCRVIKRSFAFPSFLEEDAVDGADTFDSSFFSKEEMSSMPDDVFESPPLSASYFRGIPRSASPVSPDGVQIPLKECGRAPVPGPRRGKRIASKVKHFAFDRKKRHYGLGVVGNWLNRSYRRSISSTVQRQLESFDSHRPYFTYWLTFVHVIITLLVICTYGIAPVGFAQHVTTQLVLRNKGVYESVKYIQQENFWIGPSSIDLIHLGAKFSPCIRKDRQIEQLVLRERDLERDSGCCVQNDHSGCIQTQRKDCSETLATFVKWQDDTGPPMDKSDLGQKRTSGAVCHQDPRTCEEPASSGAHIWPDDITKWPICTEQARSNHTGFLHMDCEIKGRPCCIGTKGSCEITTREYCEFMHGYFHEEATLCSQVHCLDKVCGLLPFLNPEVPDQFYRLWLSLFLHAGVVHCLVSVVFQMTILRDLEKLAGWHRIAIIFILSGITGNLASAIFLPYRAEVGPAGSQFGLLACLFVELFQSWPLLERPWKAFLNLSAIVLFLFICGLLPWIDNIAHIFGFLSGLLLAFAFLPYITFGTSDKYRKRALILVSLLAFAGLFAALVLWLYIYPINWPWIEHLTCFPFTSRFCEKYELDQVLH

B1: 23-B-04: humanized antibody binding human iRhom2; HCVD SEQ ID NO 25, LCVD SEQ ID NO 29 (antibody, V domains shown)
VH: QVTLRESGPALVKPTQTLTLTCTFSGFSLSTFGMGVGWIRQPPGKALEWLAHIWWDDEKYYNSALKSRLTISKDTSKNQVVLTITNMDPVDTATYYCARISNYGSNYWYFNVWGQGTLVTVSS
VL: AIQLTQSPSSLSASVGDRVTITCRASSSVSYMYWYQQKPGKAPKVLIYDTSNLASGVPSRFSGSGSGTDYTLTISSLQPEDFATYYCQQWNAYPLTFGQGTKLEIK
modifications: antibody sequences
B2: 42-B-02: humanized antibody binding human iRhom2; HCVD SEQ ID NO 33, LCVD SEQ ID NO 37 (antibody, V domains shown)
VH: B1 VH with M34R, S101Q, N111D
VL: B1 VL with S28R, V29I, Y33F, A92S
modifications: antibody sequences
B3: 42-B-04: humanized antibody binding human iRhom2; HCVD SEQ ID NO 41, LCVD SEQ ID NO 45 (antibody, V domains shown)
VH: B1 VH with M34R, S101Q, N111D
VL: B1 VL with S28R, V29I, Y33F
modifications: antibody sequences
B4: 16-B-03: humanized antibody binding human iRhom2; HCVD SEQ ID NO 1, LCVD SEQ ID NO 5 (antibody, V domains shown)
VH: QVTLRESGPALVKPTQTLTLTCTFSGFSLSTFALGVGWIRQPPGKALEWLAHIWWDDDKYYNPALKSRLTISKDTSKNQVVLTITNMDPVDTATYYCARITTYYYGMDYWGQGTLVTVSS
VL: EIVMTQSPDFQSVTPKEKVTITCRASQSIGNHLHWYQQKPDASPKLLIKYASQSISGVPSRFSGSGSGTDFTLTINSLEAEDAATYFCQQSYQWPLTFGQGTKLEIK
modifications: antibody sequences
B5: 16-B-07: humanized antibody binding human iRhom2; HCVD SEQ ID NO 17, LCVD SEQ ID NO 21 (antibody, V domains shown)
VH: B4 VH with D57E
VL: B4 VL
modifications: antibody sequences
B6: 16-B-05: humanized antibody binding human iRhom2; HCVD SEQ ID NO 9, LCVD SEQ ID NO 13 (antibody, V domains shown)
VH: B4 VH with D57E
VL: B4 VL with Q93N
modifications: antibody sequences

These molecules were tested on rabbit iRhom1 (assay: FACS binding on MEF-DKO-Rabbit-iR1-FL-WT-T7 cells). Settings: antibody at 3 μg/ml.
Excerpt: (§1) Next, iRhom1/2−/− DKO MEFs stably expressing a tagged form of rhesus monkey, cynomolgus monkey, dog or rabbit iRhom2 were generated in order to determine cross-reactivity of the antibodies of the invention with the respective orthologue of iRhom2. iRhom1/2−/− DKO MEFs stably expressing a tagged form of rhesus monkey, cynomolgus monkey, dog or rabbit iRhom1 were generated to confirm specificity for iRhom2 versus iRhom1 of these species.
(§2) In brief, on day 1, Phoenix-ECO cells (American Type Culture Collection, USA) were seeded on 6-well tissue culture plates (Greiner, Germany) in standard growth medium at 8×10^5 cells per well and kept overnight at 37° C., 5% CO2. On day 2, the medium was replaced by fresh medium supplemented with chloroquine (Sigma-Aldrich, USA) at a final concentration of 25 μM. Applying the calcium phosphate method, cells were transfected with 2 μg/ml of pMSCV (Clontech, USA) empty vector, pMSCV-rhesus-iR2-FL-WT-T7 encoding rhesus monkey iRhom2 full length wild type C-terminally tagged with 3 consecutive copies of the T7 epitope, pMSCV-cyno-iR2-FL-WT-T7 encoding cynomolgus monkey iRhom2 full length wild type C-terminally tagged with 3 consecutive copies of the T7 epitope, pMSCV-dog-iR2-FL-WT-T7 encoding dog iRhom2 full length wild type C-terminally tagged with 3 consecutive copies of the T7 epitope or pMSCV-rabbit-iR2-FL-WT-T7 encoding rabbit iRhom2 full length wild type C-terminally tagged with 3 consecutive copies of the T7 epitope, respectively, and were kept at 37° C., 5% CO2. After 7 hours, the transfections were stopped by replacing cell supernatants with standard growth medium lacking chloroquine, and cells were incubated at 37° C., 5% CO2 to allow virus production overnight. In parallel, immortalized iRhom1/2−/− DKO MEFs as target cells for retroviral infection were seeded on 6-well tissue culture plates (Greiner, Germany) in standard growth medium at 1×10^5 cells per well and were also kept overnight at 37° C., 5% CO2. On day 3, the supernatants of Phoenix-ECO cells releasing pMSCV, pMSCV-rhesus-iR2-FL-WT-T7, pMSCV-cyno-iR2-FL-WT-T7, pMSCV-dog-iR2-FL-WT-T7 or pMSCV-rabbit-iR2-FL-WT-T7 ecotrophic virus, respectively were collected, filtered with 0.45 μm CA filters, and supplemented with 4 μg/ml of polybrene (Sigma-Aldrich, USA). Upon removal of medium from the immortalized iRhom1/2−/− DKO MEFs, the virus containing supernatants were added to the target cells for 4 hours at 37° C., 5% CO2 for first infection. Simultaneously, Phoenix-ECO cells were re-incubated with fresh medium, which, after another 4 hours, was filtered and used for the second infection of the respective target cell populations, again in the presence of 4 μg/ml of polybrene. Likewise, a third, but overnight infection cycle was performed. On day 4, virus containing cell supernatants were replaced by fresh standard growth medium. From day 5 onwards, cells were grown in the presence of 2 mg/ml of geneticin (G418, Thermo Fisher Scientific, USA) for the selection of immortalized MEF-DKO-EV control cells stably infected with pMSCV empty vector, pMSCV-rhesus-iR2-FL-WT-T7 cells stably expressing rhesus monkey iRhom2 full length wild type C-terminally tagged with 3 consecutive copies of the T7 epitope, pMSCV-cyno-iR2-FL-WT-T7 cells stably expressing cynomolgus monkey iRhom2 full length wild type C-terminally tagged with 3 consecutive copies of the T7 epitope, pMSCV-dog-iR2-FL-WT-T7 cells stably expressing dog iRhom2 full length wild type C-terminally tagged with 3 consecutive copies of the T7 epitope or pMSCV-rabbit-iR2-FL-WT-T7 cells stably expressing rabbit iRhom2 full length wild type C-terminally tagged with 3 consecutive copies of the T7 epitope, respectively. Upon propagation, cells were stocked for future usage. In parallel, iRhom1/2−/− DKO MEFs stably expressing a tagged form of rhesus monkey, cynomolgus monkey, dog or rabbit iRhom1 were generated in an analogous manner. […]
For B1, the “binding to rabbit iRhom1 on MEF-DKO-Rabbit-iR1-FL-WT-T7 cells” value (“binding to rabbit iRhom1” below) was “do not recognize rabbit iRhom1”.
B2 was tested, and the “binding to rabbit iRhom1” value was “do not recognize rabbit iRhom1”.
B3 was tested, and the “binding to rabbit iRhom1” value was “do not recognize rabbit iRhom1”.
B4 was tested, and the “binding to rabbit iRhom1” value was “no significant binding”.
In the case of B5, the “binding to rabbit iRhom1” value is reported as “do not recognize rabbit iRhom1”.
With B6 the “binding to rabbit iRhom1” value was “do not recognize rabbit iRhom1”.

These molecules were tested against T1, rhesus monkey iRhom2 (assay: FACS cross-reactivity on MEF-DKO-Rhesus-iR2-FL-WT-T7 cells). Settings: antibody at 3 μg/ml.
Type: binding
Excerpt: as §1, §2
With B1 the “binding to rhesus monkey iRhom2 on MEF-DKO-Rhesus-iR2-FL-WT-T7 cells” value (“binding to rhesus monkey iRhom2” below) was “recognize rhesus monkey iRhom2”.
With B2 the “binding to rhesus monkey iRhom2” value was “recognize rhesus monkey iRhom2”.
In the case of B3, the “binding to rhesus monkey iRhom2” value is reported as “recognize rhesus monkey iRhom2”.
B4 was tested, and the “binding to rhesus monkey iRhom2” value was “Strong binding”.
In the case of B5, the “binding to rhesus monkey iRhom2” value is reported as “recognize rhesus monkey iRhom2”.
In the case of B6, the “binding to rhesus monkey iRhom2” value is reported as “recognize rhesus monkey iRhom2”.

Reference: patent US12404345B2, “Humanized antibodies against iRHOM2” (SCIRHOM GMBH, priority 2021, dated 2025)
